The source of these data is the supplement of paper PMC12764529.

Data set [1] can be described thus: folding stability dG unfold from trypsin proteolysis; higher = more stable. In outline: (§1)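 Digests were run with trypsin and chymotrypsin at 11 concentrations in threefold dilutions, plus a no-protease condition, on designed mini-proteins in a PA-tagged cDNA display construct. The mini-proteins were under 80 residues, had no cysteine, and were kept only when AlphaFold2 dimer inter-PAE was above 15. After sequencing, Bayesian fitting of the counts gave K50, from which unfolding free energy was derived against a sequence-predicted unfolded-state K50 and a shared folded-state K50, per protease or combined.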

Data set [2] is described as follows: folding stability dG unfold from chymotrypsin proteolysis; higher = more stable. In outline:
as §1

The nature of data set [3]: folding stability dG unfold (combined trypsin and chymotrypsin); higher = more stable. In short, it runs like this:
as §1

± gives the half width of the 95% confidence interval.

Regarding “SAGGSAGGGSLTVTTDPDGTQTVTLPDGRTFTFTNPYGVTRLVRARPDDGFEVWLQVDGKWYPLSAGGSAGG [r6_903_TrMRF]”, the results for the “folding stability dG unfold” value in data set [1], in data set [2] and in data set [3] were 0.96 ± 0.022 kcal/mol, 1.88 ± 0.053 kcal/mol and 1.57 ± 0.031 kcal/mol, respectively.
As for “SAGGSAGGGTIEIEDPNGVKVEIEIDPDDGYTIIKAFMPDGWVITILMPPEGKIEIETFPLEPPSAGGSAGG [r6_415_TrROS]”, the entries for the “folding stability dG unfold” value in data set [1], in data set [2] and in data set [3] were 1.92 ± 0.26 kcal/mol, 2.96 ± 0.23 kcal/mol and 2.43 ± 0.35 kcal/mol, respectively.
“SAGGSAGGGVYLNGLLPGGVALLSAPTASGEYTLILISPDNRALIFSYPADTGTPRVAEIDLPTSAGGSAGG [r6_159_TrMRF]”: the figures for the “folding stability dG unfold” value in data set [1], in data set [2] and in data set [3] were 0.577 ± 0.062 kcal/mol, 1.87 ± 0.065 kcal/mol and 1.49 ± 0.11 kcal/mol, respectively.
Regarding “SAGGSAGGITPDDYFLIKLNAVVKLPNGDIVELKKDEVILAKADDVEILHADDIEIYPIGRDKLSAGGSAGG [r6_810_TrMRF]”, the “folding stability dG unfold” value was 0.23 ± 0.048 kcal/mol in data set [1], -0.503 ± 0.29 kcal/mol in data set [2] and -0.0393 ± 0.22 kcal/mol in data set [3].
As for “SAGGSAGGIWFMIKSAEDLKNLLNKWGWTIKDISVERWENDDGYVWIPIKIKPVPPPPPPEEDKSAGGSAGG [r6_981_TrROS]”, the “folding stability dG unfold” value in data set [1] was determined as 2.36 ± 0.086 kcal/mol; in data set [2], 3.77 ± 0.061 kcal/mol; in data set [3] it was 3.06 ± 0.44 kcal/mol.
For “SAGGSAGGIWIPVPDGYWIKIEMPDNNGEPKATHEMDSPADVEEALEEMPPDNLTKVEIWPLPDSAGGSAGG [r6_705_TrROS]” the same measures were 0.875 ± 0.16 kcal/mol, 0.902 ± 0.21 kcal/mol and 0.532 ± 0.71 kcal/mol.
For “SAGGSAGGKEIKVIELPEEKVTIEVTITLEDGTVIKVTAVIDAETGEIVEITSVEIVPLPAEEKSAGGSAGG [r6_927_TrROS_Hall]” the same measures were -0.122 ± 0.11 kcal/mol, 1.88 ± 0.2 kcal/mol and 1.36 ± 0.21 kcal/mol.
As for “SAGGSAGGKEPFTVDKVEATVPFPGADGTEGVVLVTLPNGEKRLIPASELPLENLQPDGTVSSASAGGSAGG [r6_609_TrMRF]”, the “folding stability dG unfold” value in data set [1] stood at 0.161 ± 0.034 kcal/mol; in data set [2] it was 0.328 ± 0.037 kcal/mol; in data set [3], 0.302 ± 0.11 kcal/mol.
With “SAGGSAGGKIEIVFETPSGDIVPITYDPKTKKVDVTVRNKDGKPSEELKEKAIELAKKLIEELESAGGSAGG [r6_224_TrMRF]”, the “folding stability dG unfold” value is 0.29 ± 0.25 kcal/mol in data set [1], 1.05 ± 0.15 kcal/mol in data set [2] and 0.519 ± 0.26 kcal/mol in data set [3].
Turning to “SAGGSAGGKITLLDEEEIEEVAKELGIDPENIRVIKVENEIIAILSKAKPLTPEKLKEIVEKLKSAGGSAGG [r6_243_JUSTAS]”, the “folding stability dG unfold” value in data set [1] was found to be 1.06 ± 0.021 kcal/mol; in data set [2], 0.686 ± 0.029 kcal/mol; in data set [3] it was 0.934 ± 0.055 kcal/mol.
For “SAGGSAGGKKKIIKIKNKDGEYLIKVKTKDGKTVEFKKFKSLEEALKALPKEKIEKIEIIPLKKSAGGSAGG [r6_307_TrROS_Hall]”, the “folding stability dG unfold” value was found to be 1.64 ± 0.085 kcal/mol in data set [1], 2.4 ± 0.1 kcal/mol in data set [2] and 2.06 ± 0.42 kcal/mol in data set [3].
On to “SAGGSAGGKKKTIVIKADSLEELKAALEALPEKVEVRLPNGETITLEVDGKKVEIKVISPEELKSAGGSAGG [r6_641_TrROS_Hall]”, for which the “folding stability dG unfold” value amounted to 0.448 ± 0.039 kcal/mol in data set [1], 0.959 ± 0.048 kcal/mol in data set [2] and 0.753 ± 0.14 kcal/mol in data set [3].
As to “SAGGSAGGKKLTAEELAKKLKELIPDVEKVEIVSVDKKTKKVTIKVKTKKEKEKIKEALKELLKSAGGSAGG [r6_635_TrROS_Hall]”, the “folding stability dG unfold” value amounted to 0.56 ± 0.064 kcal/mol in data set [1], 0.816 ± 0.048 kcal/mol in data set [2] and 0.65 ± 0.1 kcal/mol in data set [3].
Take “SAGGSAGGKKLYIVKIKIKNENGEEIEITLVFETEEQLKEALESLPIKNVKIEDVEIIPLEELKSAGGSAGG [r6_296_TrROS_Hall]”: the “folding stability dG unfold” value in data set [1] came out at 1.88 ± 0.051 kcal/mol; in data set [2], 3.39 ± 0.098 kcal/mol; in data set [3], 3 ± 0.063 kcal/mol.
On to “SAGGSAGGKKYEVVSTIKDPATGETITVIKKDGKLIITITNKNGETKTIEITVKPGETITITAPSAGGSAGG [r6_379_TrROS_Hall]”, for which the “folding stability dG unfold” value in data set [1] turned out to be 1.93 ± 0.077 kcal/mol; in data set [2] it was 1.57 ± 0.026 kcal/mol; in data set [3], 1.74 ± 0.057 kcal/mol.
Turning to “SAGGSAGGKLKIEITLEKVKNPETKEYYYRLRVTIYNENGKKIKEIEVVAKSKEEALEALKKLLSAGGSAGG [r6_974_TrROS_Hall]”, the “folding stability dG unfold” value in data set [1] was 4.98 ± 0.22 kcal/mol; in data set [2], 5.24 ± 0.068 kcal/mol; in data set [3] it was 5.2 ± 0.13 kcal/mol.
For “SAGGSAGGKLKVRIEIYRKDPKTNKWTKVKTIEIEIEAESEEELLAAAKALAPPGYEVKVELLPSAGGSAGG [r6_623_TrROS_Hall]” the same measures were 4.26 ± 0.24 kcal/mol, 5.23 ± 0.21 kcal/mol and 5.15 ± 0.34 kcal/mol.
In the case of “SAGGSAGGKLVIGVFIPGLTPEQAEALVKLLEALGYPKENVTVVVFNVPALPPPGLEELLTKNGSAGGSAGG [r6_243_TrMRF]”, the figures for the “folding stability dG unfold” value in data set [1], in data set [2] and in data set [3] were 1.77 ± 0.071 kcal/mol, 2.75 ± 0.042 kcal/mol and 2.45 ± 0.16 kcal/mol, respectively.
Turning to “SAGGSAGGKLVVLLVRRPDGSLALRVTDAENPAEALEAARRNGMEALPLEVDDLEEFLEAIGLGSAGGSAGG [r6_495_TrMRF]”, the “folding stability dG unfold” value in data set [1] was 0.875 ± 0.076 kcal/mol; in data set [2], 2.65 ± 0.09 kcal/mol; in data set [3] it was 2.17 ± 0.13 kcal/mol.
In the case of “SAGGSAGGKNNETRRDPNNGNTYTRTGGKWEMEPVPPPIEIVPWPIWDPNGQDLELMWRVSINLSAGGSAGG [r6_313_TrROS]”, the “folding stability dG unfold” value in data set [1] was 1.06 ± 0.2 kcal/mol; in data set [2] it was 0.497 ± 0.49 kcal/mol; in data set [3], 0.838 ± 0.33 kcal/mol.
With “SAGGSAGGKPPKFKVEVFIFPESNSVLVKIELPNSTLPFFIDKNGKIKGIKIIGDKVFNVSEGLSAGGSAGG [r6_241_TrMRF]”, the “folding stability dG unfold” value in data set [1] was found to be 1.42 ± 0.12 kcal/mol; in data set [2] it was 2.17 ± 0.097 kcal/mol; in data set [3], 1.96 ± 0.17 kcal/mol.
In the case of “SAGGSAGGKPPKPPKKVTITVTITFTLEDGKTVTVTAKITFLPDGTIKIEITYPDGSKLTLTFPSAGGSAGG [r6_109_TrROS_Hall]”, the “folding stability dG unfold” value in data set [1] amounted to 3.75 ± 0.35 kcal/mol; in data set [2] it was 4.81 ± 0.18 kcal/mol; in data set [3] it was 4.59 ± 0.23 kcal/mol.
For “SAGGSAGGKTLELEVEALDPITGEPYKVKIIYDPETGTATILVTHPNGKKSLFTVPAGEALKLLSAGGSAGG [r6_219_TrMRF]”, the results for the “folding stability dG unfold” value in data set [1], in data set [2] and in data set [3] were 2.63 ± 0.19 kcal/mol, 3.456 ± 0.033 kcal/mol and 3.28 ± 0.13 kcal/mol, respectively.
“SAGGSAGGKTLTIKLKDSTVTIELPSSISSISRIEVHSDGSLTLYHSSTGSTITLPIPPKIDNPSAGGSAGG [r6_369_TrMRF]”: the “folding stability dG unfold” value stood at 1.74 ± 0.058 kcal/mol in data set [1], 2.06 ± 0.035 kcal/mol in data set [2] and 1.96 ± 0.051 kcal/mol in data set [3].
For “SAGGSAGGKVRINWNPNGWIRIKIETPGKKQEIPIPMDSPEDAKDFVDKLAKQFKVKIEEIEPYSAGGSAGG [r6_254_TrROS]” the same measures were -0.179 ± 0.47 kcal/mol, 0.166 ± 0.3 kcal/mol and 0.194 ± 0.26 kcal/mol.
As to “SAGGSAGGLEDVIRALGLELLEREKIGEKIRILARDPNADRLYEVTVTLEGPPEIEITPLPPGLSAGGSAGG [r6_195_JUSTAS]”, the “folding stability dG unfold” value was found to be 2.79 ± 0.052 kcal/mol in data set [1], 3.225 ± 0.022 kcal/mol in data set [2] and 3.04 ± 0.037 kcal/mol in data set [3].
Turning to “SAGGSAGGLIEEILKEIGLSPEEVVKVEVEPIEEKENSLTVRVTAEFLLPDGSKKKIEAEFEIGSAGGSAGG [r6_774_TrMRF]”, the “folding stability dG unfold” value came to 1.1 ± 0.06 kcal/mol in data set [1], 1.13 ± 0.082 kcal/mol in data set [2] and 1.21 ± 0.11 kcal/mol in data set [3].
For “SAGGSAGGLTLRLELEIRLEDGLTLRVRVEYDLETNEVKIEIELLPPAPPVEEEPEVLVVEEEESAGGSAGG [r6_926_TrROS_Hall]”, the figures for the “folding stability dG unfold” value in data set [1], in data set [2] and in data set [3] were 3 ± 0.29 kcal/mol, 4.28 ± 0.29 kcal/mol and 3.78 ± 0.41 kcal/mol, respectively.
As for “SAGGSAGGLYIVRIEIYHPENGKEWTIMIPVPSEEEAKEEAEELAKTFAKKNGYKIEVEVFPLPSAGGSAGG [r6_787_TrROS]”, the entries for the “folding stability dG unfold” value in data set [1], in data set [2] and in data set [3] were 1.53 ± 0.033 kcal/mol, 2.5 ± 0.067 kcal/mol and 2.11 ± 0.1 kcal/mol, respectively.
Take “SAGGSAGGMAKVKILKIKPVNTGEDGSKSVEIEVEFENPNPEVAKAFVEEIAKKLGFEEVEDTTSAGGSAGG [r6_317_TrMRF]”: the figures for the “folding stability dG unfold” value in data set [1], in data set [2] and in data set [3] were 0.43 ± 0.079 kcal/mol, 0.687 ± 0.15 kcal/mol and 0.406 ± 0.28 kcal/mol, respectively.
For “SAGGSAGGMDAEELAERIANHFQEHFPDMPIKVEVDPDHGWAKIEMRNPNNPGQKHEFEIPIDKSAGGSAGG [r6_478_TrROS]”, the “folding stability dG unfold” value in data set [1] came out at 0.311 ± 0.093 kcal/mol; in data set [2], 1.29 ± 0.031 kcal/mol; in data set [3] it was 0.912 ± 0.1 kcal/mol.
Take “SAGGSAGGMEEVLALLKELGLEVKSVDIKSPDKVIVYIKPKDEKKLEELKKAVPKSLVDEIGLESAGGSAGG [r6_84_JUSTAS]”: the “folding stability dG unfold” value is -0.0936 ± 0.083 kcal/mol in data set [1], 0.455 ± 0.15 kcal/mol in data set [2] and 0.275 ± 0.13 kcal/mol in data set [3].
For “SAGGSAGGMEIRVERDPESDLLVAELKIDGHDAIAVFDPNRPGHIEIGTTNEIPIEEIIDALLSSAGGSAGG [r6_195_TrMRF]”, the results for the “folding stability dG unfold” value in data set [1], in data set [2] and in data set [3] were 0.683 ± 0.038 kcal/mol, -0.08 ± 0.32 kcal/mol and 0.152 ± 0.37 kcal/mol, respectively.
In the case of “SAGGSAGGMEVVERVVKLPDGTELRITIERDPEKDTAKVTITDPTTSETRTLDVTSEEEALELLSAGGSAGG [r6_465_JUSTAS]”, the “folding stability dG unfold” value in data set [1] is 2.31 ± 0.068 kcal/mol; in data set [2], 1.56 ± 0.032 kcal/mol; in data set [3], 1.93 ± 0.037 kcal/mol.
Turning to “SAGGSAGGMIEVYEEGDKLTVLNPGPDPNKKVTVTLDNGSATSSRIPEGTYVTTATVAPDATLKSAGGSAGG [r6_70_JUSTAS]”, the “folding stability dG unfold” value in data set [1] is 0.14 ± 0.028 kcal/mol; in data set [2], -1.06 ± 0.36 kcal/mol; in data set [3] it was -0.169 ± 0.099 kcal/mol.
For “SAGGSAGGMIIQEVEEFKDKSEEEVKKKMLEELKKKYPKSYKVKITVTKNPSGKYTVTVTITPNSAGGSAGG [r6_964_JUSTAS]”, the “folding stability dG unfold” value turned out to be 2.19 ± 0.047 kcal/mol in data set [1], 2.65 ± 0.059 kcal/mol in data set [2] and 2.51 ± 0.071 kcal/mol in data set [3].
